Measured values taken from patent US20260167699A1 (Chugai, published 2026).
Where a chain is given by its changes, count along the chain named.

T1: FcγRIIa(R) extracellular domain, His-tagged (human, UniProt P12318 34-217)
T1 construct: extracellular domain; also called 2aR
T1 sequence: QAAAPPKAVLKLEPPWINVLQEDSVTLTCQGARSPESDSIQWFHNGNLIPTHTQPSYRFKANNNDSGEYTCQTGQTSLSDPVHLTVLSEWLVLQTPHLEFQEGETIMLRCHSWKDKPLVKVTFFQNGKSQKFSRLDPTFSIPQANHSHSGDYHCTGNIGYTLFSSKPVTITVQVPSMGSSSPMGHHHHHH

T2: FcγRIIa(H) extracellular domain, His-tagged (human, UniProt P12318 34-217)
T2 construct: extracellular domain; also called 2aH
T2 sequence: T1 sequence with R134H

T3: FcγRIIb extracellular domain, His-tagged (human, UniProt P31994 43-217)
T3 construct: extracellular domain; also called 2b
T3 sequence: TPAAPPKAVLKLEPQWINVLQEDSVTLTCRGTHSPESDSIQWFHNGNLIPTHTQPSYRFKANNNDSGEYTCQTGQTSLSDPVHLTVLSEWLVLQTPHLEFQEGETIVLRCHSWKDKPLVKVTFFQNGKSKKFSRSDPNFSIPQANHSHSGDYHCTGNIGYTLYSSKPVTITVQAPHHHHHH

B1: GpH7-A5/GpH7-B3 variant Q295_07I/GpL16-k0 (antibody, human IgG1, kappa)
heavy 1: not shown
heavy 2: not shown
light: DIVMTQSPLSLPVTPGEPASISCQASESLVHSNRNTYLHWYLQKPGQSPQLLIYKVSNRFSGVPDRFSGSGSGTDFTLKISRVEAEDVGVYYCSQNTHVPPTFGQGTKVEIERTVAAPSVFIFPPSDEQLKSGTASVVCLLNNFYPREAKVQWKVDNALQSGNSQESVTEQDSKDSTYSLSSTLTLSKADYEKHKVYACEVTHQGLSSPVTKSFNRGEC
B2: GpH7-A5/GpH7-B3 variant S239_06M/GpL16-k0 (antibody, human IgG1, kappa)
heavy 1: not shown
heavy 2: not shown
light: B1 light
B3: GpH7-A5/GpH7-B3 variant S267_10E/GpL16-k0 (antibody, human IgG1, kappa)
heavy 1: not shown
heavy 2: not shown
light: B1 light
B4: GpH7-A5/GpH7-B3 variant Q295_16H/GpL16-k0 (antibody, human IgG1, kappa)
heavy 1: not shown
heavy 2: not shown
light: B1 light
B5: GpH7-A5/GpH7-B3 variant Q295_12R/GpL16-k0 (antibody, human IgG1, kappa)
heavy 1: not shown
heavy 2: not shown
light: B1 light
B6: GpH7-A5/GpH7-B3 variant S239_01G/GpL16-k0 (antibody, human IgG1, kappa)
heavy 1: not shown
heavy 2: not shown
light: B1 light
B7: GpH7-A5/GpH7-B3 variant Q295_18N/GpL16-k0 (antibody, human IgG1, kappa)
heavy 1: not shown
heavy 2: not shown
light: B1 light
B8: GpH7-A5/GpH7-B3 variant Q295_08L/GpL16-k0 (antibody, human IgG1, kappa)
heavy 1: not shown
heavy 2: not shown
light: B1 light
B9: GpH7-A5/GpH7-B3 variant Q295_15Y/GpL16-k0 (antibody, human IgG1, kappa)
heavy 1: not shown
heavy 2: not shown
light: B1 light
B10: GpH7-A5/GpH7-B3 variant S267_09D/GpL16-k0 (antibody, human IgG1, kappa)
heavy 1: not shown
heavy 2: not shown
light: B1 light
B11: GpH7-A5/GpH7-B3 variant Q295_09D/GpL16-k0 (antibody, human IgG1, kappa)
heavy 1: not shown
heavy 2: not shown
light: B1 light
B12: GpH7-A5/GpH7-B3 variant S267_02A/GpL16-k0 (antibody, human IgG1, kappa)
heavy 1: not shown
heavy 2: not shown
light: B1 light
B13: GpH7-A5/GpH7-B3 variant S239_07I/GpL16-k0 (antibody, human IgG1, kappa)
heavy 1: not shown
heavy 2: not shown
light: B1 light
B14: GpH7-A5/GpH7-B3 variant S239_18N/GpL16-k0 (antibody, human IgG1, kappa)
heavy 1: not shown
heavy 2: not shown
light: B1 light
B15: GpH7-A5/GpH7-B3 variant Q295_14T/GpL16-k0 (antibody, human IgG1, kappa)
heavy 1: not shown
heavy 2: not shown
light: B1 light
B16: GpH7-A5/GpH7-B3 variant Q295_13S/GpL16-k0 (antibody, human IgG1, kappa)
heavy 1: not shown
heavy 2: not shown
light: B1 light
B17: GpH7-A5/GpH7-B3 variant S267_01G/GpL16-k0 (antibody, human IgG1, kappa)
heavy 1: not shown
heavy 2: not shown
light: B1 light
B18: GpH7-A5/GpH7-B3 variant S239_03V/GpL16-k0 (antibody, human IgG1, kappa)
heavy 1: not shown
heavy 2: not shown
light: B1 light
B19: GpH7-A5/GpH7-B3 variant S239_09D/GpL16-k0 (antibody, human IgG1, kappa)
heavy 1: not shown
heavy 2: not shown
light: B1 light
B20: GpH7-A5/GpH7-B3 variant S239_08L/GpL16-k0 (antibody, human IgG1, kappa)
heavy 1: not shown
heavy 2: not shown
light: B1 light
B21: GpH7-A5/GpH7-B3 variant Q295_11K/GpL16-k0 (antibody, human IgG1, kappa)
heavy 1: not shown
heavy 2: not shown
light: B1 light
B22: GpH7-A5/GpH7-B3 variant Q295_10E/GpL16-k0 (antibody, human IgG1, kappa)
heavy 1: not shown
heavy 2: not shown
light: B1 light
B23: GpH7-A5/GpH7-B3 variant S239_02A/GpL16-k0 (antibody, human IgG1, kappa)
heavy 1: not shown
heavy 2: not shown
light: B1 light
B24: GpH7-A5/GpH7-B3 variant S239_10E/GpL16-k0 (antibody, human IgG1, kappa)
heavy 1: not shown
heavy 2: not shown
light: B1 light
B25: GpH7-A5/GpH7-B3 variant S239_19Q/GpL16-k0 (antibody, human IgG1, kappa)
heavy 1: not shown
heavy 2: not shown
light: B1 light
B26: GpH7-A5/GpH7-B3 variant S239_14T/GpL16-k0 (antibody, human IgG1, kappa)
heavy 1: not shown
heavy 2: not shown
light: B1 light

Biological target: T4, FcγRIa extracellular domain, His-tagged (human, UniProt P12314 16-292)
T4 construct: extracellular domain; also called 1a
Test: SPR, vs GpH7-A5/GpH7-B3/GpL16-k0 =100

T4 sequence (P12314 other isoform, or with tags, fused parts or gaps): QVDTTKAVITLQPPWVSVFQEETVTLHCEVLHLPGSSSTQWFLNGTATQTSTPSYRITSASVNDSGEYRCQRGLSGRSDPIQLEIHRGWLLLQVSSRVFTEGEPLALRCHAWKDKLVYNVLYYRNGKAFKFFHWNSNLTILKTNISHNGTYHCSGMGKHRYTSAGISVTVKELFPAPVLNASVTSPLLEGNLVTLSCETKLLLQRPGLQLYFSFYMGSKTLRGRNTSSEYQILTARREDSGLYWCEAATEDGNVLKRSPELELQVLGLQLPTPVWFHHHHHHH

| He/Con 1a | Binder |
| --- | --- |
| 101 % of control | B1 |
| 102 % of control | B2 |
| 102 % of control | B3 |
| 101 % of control | B4 |
| 98.8 % of control | B5 |
| 104 % of control | B6 |
| 101 % of control | B7 |
| 103 % of control | B8 |
| 100 % of control | B9 |
| 106 % of control | B10 |
| 98.5 % of control | B11 |
| 105 % of control | B12 |
| 101 % of control | B13 |
| 104 % of control | B14 |
| 101 % of control | B15 |
| 100 % of control | B16 |
| 99.9 % of control | B17 |
| 98.9 % of control | B18 |
| 104 % of control | B19 |
| 103 % of control | B20 |
| 99.7 % of control | B21 |
| 101 % of control | B22 |
| 103 % of control | B23 |
| 108 % of control | B24 |
| 104 % of control | B25 |
| 104 % of control | B26 |

Biological target: T1, FcγRIIa(R) extracellular domain, …
Test: SPR, vs GpH7-A5/GpH7-B3/GpL16-k0 =100

| He/Con 2aR | Binder |
| --- | --- |
| 97.3 % of control | B1 |
| 94.7 % of control | B2 |
| 188 % of control | B3 |
| 80.5 % of control | B4 |
| 82.2 % of control | B5 |
| 120 % of control | B6 |
| 81.7 % of control | B7 |
| 118 % of control | B8 |
| 82 % of control | B9 |
| 186 % of control | B10 |
| 68.7 % of control | B11 |
| 167 % of control | B12 |
| 95.9 % of control | B13 |
| 104 % of control | B14 |
| 79.2 % of control | B15 |
| 73 % of control | B16 |
| 121 % of control | B17 |
| 94.1 % of control | B18 |
| 129 % of control | B19 |
| 114 % of control | B20 |
| 88.1 % of control | B21 |
| 101 % of control | B22 |
| 89.8 % of control | B23 |
| 127 % of control | B24 |
| 79.8 % of control | B25 |
| 97.4 % of control | B26 |

Biological target: T2, FcγRIIa(H) extracellular domain, …
Test: SPR, vs GpH7-A5/GpH7-B3/GpL16-k0 =100

| He/Con 2aH | Binder |
| --- | --- |
| 117 % of control | B1 |
| 95.4 % of control | B2 |
| 103 % of control | B3 |
| 90.1 % of control | B4 |
| 96.4 % of control | B5 |
| 93.8 % of control | B6 |
| 87.8 % of control | B7 |
| 128 % of control | B8 |
| 89.3 % of control | B9 |
| 107 % of control | B10 |
| 62.6 % of control | B11 |
| 121 % of control | B12 |
| 88.5 % of control | B13 |
| 91.1 % of control | B14 |
| 86.2 % of control | B15 |
| 79.5 % of control | B16 |
| 72.1 % of control | B17 |
| 88 % of control | B18 |
| 111 % of control | B19 |
| 101 % of control | B20 |
| 102 % of control | B21 |
| 112 % of control | B22 |
| 89.9 % of control | B23 |
| 108 % of control | B24 |
| 80 % of control | B25 |
| 95.9 % of control | B26 |

Biological target: T3, FcγRIIb extracellular domain, His-tagged
Test: SPR, vs GpH7-A5/GpH7-B3/GpL16-k0 =100

| He/Con 2b | Binder |
| --- | --- |
| 94.5 % of control | B1 |
| 102 % of control | B2 |
| 398 % of control | B3 |
| 70.3 % of control | B4 |
| 73.1 % of control | B5 |
| 146 % of control | B6 |
| 72.8 % of control | B7 |
| 134 % of control | B8 |
| 73.3 % of control | B9 |
| 326 % of control | B10 |
| 68.1 % of control | B11 |
| 256 % of control | B12 |
| 108 % of control | B13 |
| 121 % of control | B14 |
| 74.9 % of control | B15 |
| 63.8 % of control | B16 |
| 110 % of control | B17 |
| 110 % of control | B18 |
| 209 % of control | B19 |
| 142 % of control | B20 |
| 79 % of control | B21 |
| 106 % of control | B22 |
| 91.6 % of control | B23 |
| 183 % of control | B24 |
| 87.3 % of control | B25 |
| 98.6 % of control | B26 |

Biological target: T5, FcγRIIIa extracellular domain, His-tagged (human, UniProt P08637 17-208)
T5 construct: extracellular domain; also called 3a
Test: SPR, vs GpH7-A5/GpH7-B3/GpL16-k0 =100

T5 sequence (P08637 other isoform, or with tags, fused parts or gaps): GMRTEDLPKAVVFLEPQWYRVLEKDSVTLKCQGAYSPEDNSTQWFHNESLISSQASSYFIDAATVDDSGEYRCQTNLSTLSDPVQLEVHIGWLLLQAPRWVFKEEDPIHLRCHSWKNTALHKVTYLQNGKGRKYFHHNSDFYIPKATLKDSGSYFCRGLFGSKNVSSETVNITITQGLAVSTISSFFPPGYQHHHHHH

| He/Con 3a | Binder |
| --- | --- |
| 101 % of control | B1 |
| 73.9 % of control | B2 |
| 90.9 % of control | B3 |
| 80.2 % of control | B4 |
| 73.2 % of control | B5 |
| 72 % of control | B6 |
| 85.7 % of control | B7 |
| 120 % of control | B8 |
| 81.5 % of control | B9 |
| 179 % of control | B10 |
| 85.6 % of control | B11 |
| 149 % of control | B12 |
| 75 % of control | B13 |
| 104 % of control | B14 |
| 120 % of control | B15 |
| 90.4 % of control | B16 |
| 53.3 % of control | B17 |
| 72.4 % of control | B18 |
| 156 % of control | B19 |
| 90 % of control | B20 |
| 81.8 % of control | B21 |
| 105 % of control | B22 |
| 70.9 % of control | B23 |
| 171 % of control | B24 |
| 53.8 % of control | B25 |
| 93 % of control | B26 |
